In PMC10600506:

Biological target: SARS-CoV-2 Omicron BA.1 Spike receptor-binding domain (SARS-CoV-2 Omicron BA.1)
Experiment: BLI; RBD1 with hACE2, 'with the same assay condition' as Nb4 with RBD1

Sequence of angiotensin-converting enzyme 2, extracellular (Q9BYF1 20-615): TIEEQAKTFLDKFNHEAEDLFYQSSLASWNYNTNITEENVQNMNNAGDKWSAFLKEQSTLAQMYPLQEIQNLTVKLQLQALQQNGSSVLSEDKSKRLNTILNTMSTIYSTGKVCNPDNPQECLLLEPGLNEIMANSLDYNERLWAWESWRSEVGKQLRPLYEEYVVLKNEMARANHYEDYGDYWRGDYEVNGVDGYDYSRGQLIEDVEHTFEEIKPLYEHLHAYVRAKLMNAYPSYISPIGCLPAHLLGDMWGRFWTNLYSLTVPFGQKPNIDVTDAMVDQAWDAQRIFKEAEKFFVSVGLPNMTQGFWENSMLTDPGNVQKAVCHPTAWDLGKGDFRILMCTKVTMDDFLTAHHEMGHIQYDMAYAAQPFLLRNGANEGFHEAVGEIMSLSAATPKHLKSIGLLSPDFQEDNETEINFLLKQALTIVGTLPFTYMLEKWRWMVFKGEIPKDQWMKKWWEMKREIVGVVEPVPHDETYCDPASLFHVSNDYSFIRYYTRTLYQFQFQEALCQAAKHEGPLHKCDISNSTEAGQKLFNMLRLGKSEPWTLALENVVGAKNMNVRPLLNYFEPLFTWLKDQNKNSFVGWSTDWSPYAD

Q: How did the Kd turn out when “angiotensin-converting enzyme 2, extracellular (from UniProt Q9BYF1 20-615) (receptor)” was run?
A: 9 nM
